This experiment addresses T1, WT tetherin (human tetherin internally tagged with an HA epitope at amino acid 155) (human), Q10589.
T1 chain: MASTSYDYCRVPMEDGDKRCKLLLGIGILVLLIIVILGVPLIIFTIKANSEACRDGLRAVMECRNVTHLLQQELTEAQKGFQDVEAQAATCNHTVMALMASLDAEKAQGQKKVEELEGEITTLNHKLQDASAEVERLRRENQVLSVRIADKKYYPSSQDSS
The experiment in a line: non-reducing SDS-PAGE and western blot; lysates of 293T cells cotransfected with HIV-1 ΔVpu proviral plasmid and tetherin plasmids, lysed in non-reducing buffer, probed with anti-HA; shows disulphide-linked dimers. The conditions noted are these: remark: other sources report otherwise. For orientation: A western blot detects proteins with antibodies after separation by electrophoresis.

This note sets out measurements from article PMC3715405.

B1: WT tetherin (human tetherin internally tagged with an HA epitope at amino acid 155), Q10589 1-161 (natural protein)
chain: MASTSYDYCRVPMEDGDKRCKLLLGIGILVLLIIVILGVPLIIFTIKANSEACRDGLRAVMECRNVTHLLQQELTEAQKGFQDVEAQAATCNHTVMALMASLDAEKAQGQKKVEELEGEITTLNHKLQDASAEVERLRRENQVLSVRIADKKYYPSSQDSS
modifications: here or on the partner: glycosylphosphatidylinositol (GPI) membrane anchor at the C-terminus; heterogeneously glycosylated; glycosylphosphatidylinositol (GPI) membrane anchor at the C-terminus; heterogeneously glycosylated
For B1, the stoichiometry N is 2.

The stoichiometry N is the number of molecules, sites or subunits per partner or assembly.
